Measurements from US20260069656A1, “Nutritive Polypeptides and Formulations Thereof, and Methods of Production and Use Thereof” (Axcella Health Inc., priority 2013, published 2026).

What was measured:
[1] = SGF digest of the 168 nutritive polypeptide library, intact protein by LC-MS/MS spectral counts; assay type: in vitro ADME; conditions: proteins detected in the 168 nutritive polypeptide library
Procedure: Nutritive polypeptide intact half-life determination in a complex mixture. The in vitro intact half-life of multiple polypeptides in a complex mixture was determined using the simulated gastric in vitro digestion described above. Briefly, the 168 nutritive polypeptide library was generated as described herein by cloning, transforming, and expressing a gene library encoding 168 proteins as a single mixture. The recombinantly expressed proteins were purified from host cell proteins by IMAC purification as described herein.
The 168 Protein Library was treated with SGF as described above and the t=0 and t=10 min samples were analyzed for intact protein by LC-MS/MS. To begin, 10 μg of sample was loaded onto a 10% SDS-PAGE gel (Invitrogen) and run approximately 5 cm into the gel. The gel was excised into ten fractions from 100 kD to the dye front and the gel slices were processed by washing with 25 mM ammonium bicarbonate, followed by acetonitrile. Gel fractions were then reduced with 10 mM dithiothreitol at 60° C., followed by alkylation with 50 mM iodoacetamide at room temperature. Finally, the samples were digested with trypsin (Promega) at 37° C. for 4 h and the digestions were quenched with the addition of formic acid. The samples were then analyzed by nano LC/MS/MS using an EasynLC 1000 HPLC system interfaced to a ThermoFisher Q Exactive. Peptides were loaded on a trapping column and eluted over a 75 μm analytical column at 350 nL/min; both columns were packed with PepMap C18 3 μm resin (ThemoFisher). A 1 hour gradient was employed. The mass spectrometer was operated in data-dependent mode, with MS and MS/MS performed in the Orbitrap at 70,000 FWHM resolution and 17,500 FWHM resolution, respectively. The fifteen most abundant ions were selected for MS/MS. Data were searched against an appropriate database using Mascot to identify peptides. Mascot DAT files were parsed into the Scaffold software for validation, filtering and to create a nonredundant list per sample. Data were filtered at 1% protein and peptide false discovery rate (FDR) and requiring at least two unique peptides per protein. A full list of detected proteins and their spectral counts (SpC) was generated and reported as a function of each collected gel fraction. SpC are a count of the number of spectra identified for a given protein and are used as a measure of relative protein abundance (Liu, H. et al., Analytical Chemistry 2004, 76:4193-4201). To calculate the percentage of intact protein remaining at the 10 min time point of the SGF digest the number of SpC representative of intact peptide in the t=10 min sample were divided by the number of SpC representative of intact peptide in the t=0 min sample. The number of SpC representative of intact peptide was defined as the sum of the SpC in the fraction with the highest number of SpC assigned to that protein in the t=0 min sample and the two flanking fractions.

[2] = Thermostability, ProteoStat Thermal Shift Stability Kit, temperature of aggregation; assay type: physicochemical
Procedure: Thermostability. The thermostability of proteins in a buffer cocktail of Citric Acid and Dibasic Sodium Phosphate over a pH range of 2.8 to 7.1 (preparation described above in Table E31B) was determined using the ProteoStat® Thermal Shift Stability Kit (Enzo Life Sciences) according to the manufacturer's standard protocol. Briefly, protein solutions (˜10 mg/ml) containing 1× ProteoStat TS Detection Reagent were heated from 25° C. to 95° C. at a rate of 0.5° C. per 30 sec using a real-time PCR (rtPCR) thermocycler (BioRad) equipped with a plate reader (SynergyMx, Biotek) while monitoring the fluorescence with a Texas Red filter.

[3] = Intact half-life during simulated gastric fluid (SGF) digestion; conditions: for SGF Half-life (t½): SGF pH 1.5, pepsin:polypeptide 1:20 w/w, 37° C., produced in E. coli unless otherwise noted; for Half-life: purified proteins, chip electrophoresis, SGF
[4] = pH solubility screen in Citric Acid / Dibasic Sodium Phosphate buffers; assay type: physicochemical; conditions: for pH Range where Protein is >80% detected as Soluble and A650 <1 OD: Low: lower pH of range; for pH Range where Protein is >80% detected as Soluble and A650 <1 OD: High: upper pH of range
Procedure: pH Solubility. […] Protein was either lyophilized and then resuspended in buffer cocktail mixtures, or concentrated and then spiked into buffer cocktail mixtures at a final protein concentration of 5 to 30 mg/ml. As a control, protein was also dissolved in a solution of 8 M urea. Protein solutions were shaken for 10 min at room temperature. Turbidity of proteins was determined by measuring the absorbance of protein solutions at 650 nm. The protein solution was then centrifuged for 10 min at 1100×g to pellet undissolved or precipitated protein. The soluble protein fraction (supernatant) was sampled and protein concentration was measured by one or more of the following methods: Coomassie Plus Protein Assay (Pierce), Chip electrophoresis, gel electrophoresis, and/or absorbance at 280 nm. The pH range over which select proteins remained greater than 80% soluble as determined by Bradford and the A650 value are listed in Table E31C.

[5] = Solubility of proteins (lyophilized/reconstituted or ultrafiltered); conditions: produced in E. coli unless otherwise noted
Procedure: Solubility. […] Protein samples were dried by lyophilization on a FreeZone Freeze Dry System (Labconco) using the manufacturer's standard protocol and then resuspended in buffer to the desired concentration. Centrifugal and tangential ultrafiltration were used to selectively remove buffer from the protein sample until the desired concentration was reached. Centrifugal ultrafiltration of protein solutions was performed by centrifugation (10,000×g) of 10 mg of protein in an Amicon centrifugal filter (Millipore) with a molecular weight cutoff of 3 kDa, 10 kDa, or 30 kDa, depending on the protein size, until the desired contrentration was reached. Ultrafiltration of protein solutions was performed on Hydrosart ultrafiltration cassettes (Sartorius Stedim, Bohemia, NY) with a molecular weight cutoff of 3 kDa, 10 kDa, or 30 kDa, depending on the protein size, at a cross flow rate of 12 L/m2/min. For most processes, transmembrane pressure was maintained at 20 psi and performed until the desired contrentration was reached.
The protein concentration of the above samples was measured by one or a combination of the following methods: Coomassie Plus Protein Assay, absorbance at 280 nm (A280), and total amino acid analysis. Coomassie Plus Protein Assays (Pierce) were performed according to the manufacturer's protocol. Absorbance at 280 nm was measured on a Nanodrop 2000 UV-Vis spectrophotometer. Protein concentration was determined using the A280 value and molar extinction coefficient, which was calculated by primary amino acid sequence using ProtParam (Gasteiger, Elisabeth, et al. The proteomics protocols handbook. Humana Press, 2005. 571-607.). Total amino acids were analyzed by HPLC after acid hydrolysis as described in Henderson, J. W., et al. Agilent Technologies (2010).

[6] = heated 25° C. to 95° C., NS = protein not soluble

Molecule	% Remaining at 10 min [1] [%]	Tagg pH 5.0 ([2]; NS = protein not soluble)	Tagg pH 5.6 ([2]; NS = protein not soluble)	Tagg pH 6.0 ([2]; NS = protein not soluble)	Tagg pH 6.5 ([2]; NS = protein not soluble)	Tagg (pH 7.1) [2, 6]	SGF Half-life (t½) [3] [s]	Half-life [3] [s]	pH Range where Protein is >80% detected as Soluble and A650 <1 OD: Low [4]	pH Range where Protein is >80% detected as Soluble and A650 <1 OD: Other [4]	pH Range where Protein is >80% detected as Soluble and A650 <1 OD: High [4]	Solubility [5] [mg/mL]	Tagg pH 2.8 ([2]; NS = protein not soluble)	Tagg pH 3.7 ([2]; NS = protein not soluble)	Tagg pH 4.3 ([2]; NS = protein not soluble)	Tagg pH 4.6 ([2]; NS = protein not soluble)	Tagg (pH 7.1) ([2]; heated from 25° C. to 95° C.)
SEQID-00485: nutritive polypeptide naturally produced in Chickpea, recombinantly expressed in E. coli (protein, listed as Cicer arietinum) MTKTGYINAAFRSSRNNEAYLFINDKYVLLDYAPGTSNDKVLYGPSFVRDGYKSLAKTIFGTYGIDCSFDTEYNEAFIFYENFCARIDYAPHSDKDKIISGPKKIADMFPFFKGTVFENGIDAAFRSTKGKEVYLFKGDKYARIDYLTNRLVQNIKSISDGFPCLRGTIFEAGMDSAFASHKTNEAYLFKGEYYARINFTPGSTNDIMGGVKKTLDYWPSLRGIIPLE	0	31.5	34.5	36	36.5	36	30	30	4.6	2.8	7.1	99					
SEQID-00502: protein of the 168 nutritive polypeptide library (protein, Glycine max, protein of the 168 nutritive polypeptide library) MASQSNTKSVHDFTVKDARGNNVNLADYKGKVLLIVNVASQCGLTNSNYTELNQLYEKYKGKGLEILAFPCNQFGAQEPGTNEEIVEFACTRFKAEFPIFDKVDVNGDNAAPLYKFLKSSKGGLFGDSIKWNFSKFLVDKDGNVVDRYAPTTSPLSIEKDIKKLLDA	9.7	77	77	76.5	78.5	95	36	36	7.1	2.8			95	95	95	95	
SEQID-00511: protein of the 168 nutritive polypeptide library (protein, Arthrospira platensis C1, protein of the 168 nutritive polypeptide library) MVLFGFGKKKSLPKPEEALPGRDRVMSVPDRHYINGNPLKPPFPEGMEQAVFGLGCFWGAERKFWQQQGVFSTAVGYAGGYTKNPTYEEVCSGMTGHTEVVLVVFDPKVISYTDLLKLFWESHNPTQGMRQGNDTGTQYRSAIYTYSDEQQRLALASRDRYQQALSAASYGEITTEIAPAQEFYYAEAYHQQYLGKNPNGYCGLGGTGVGCPAMTETSV	4.3			39.5	45.5	42	18	18	5.6		7.1						
SEQID-00601: protein of the 168 nutritive polypeptide library (protein, listed as Agaricus bisporus, var. bisporus; strain H97 / ATCC MYA-4626 / FGSC 10389, protein of the 168 nutritive polypeptide library) MTRSWEPGTQYNLGDVVEYNGDEYKIIQAHSSQSDWAPDRTPALWGKLPHRHHQQGQYQQQQECQPQQPQKTCYDYGKQEQAPQHSDSKEKKNWFGNITESQKQALEVGGGVALGAGLLGGAFAAWKHHQHKEEAHDSFEAWANAARSRAEEFRAKGPQGPATWVYNEGKHIPEQAILVGTEHNWNLYICRAYCDGGVQIGKASDVFKKGAVIGYKEDEHHLDKYEILLGDMRGLKWVQTGNSLDLASLGATPVEGGYENDHTRLYIARAFHKGAKHPGKVSERLDGAYIPYDGKEKCVKEYEVLCYL	1.1				45.5	48.5	12	12					95	95	95		
SEQID-00605: nutritive polypeptide naturally produced in Mushroom, recombinantly expressed in E. coli (protein, listed as Agaricus bisporus, var. bisporus; strain H97 / ATCC MYA-4626 / FGSC 10389, nutritive polypeptide naturally produced in Mushroom, recombinantly expressed in E. coli) MLEFTLNDGNRIPAIAFGTGTALYNQDASAFVRLAIETGITHLDGAQMYENEETLGKGIKSSGKPRSELFITTKLHILKPGQTVRETLVESLGKIGVDYVDLFLIHDPTANRKEATLSEIWSQLEALKNEGLTKSIGVSNFKVEDLNEILPGAKIIPAVNQIEFHPYVLKAASPIIELCKAKGIIVASYGGQTPIVRATDGPLKDLLPKIRERLEQTRGSPVTEGQVLTKWLLQKNVIAISTSSKESRIKEFLSTVDVPDLTKQEIESIDNAGSTIHKRIYMKHIFNE	0	33.5	37	44.5	38.5	39	12	6	5.6		7.1					40.5	
SEQID-00606: protein of the 168 nutritive polypeptide library (protein, Glycine max, protein of the 168 nutritive polypeptide library) MASEGDHHHHHHHHQDHDHHHHDHDHHHHHDGEGETNSWVGKDGKVYHSHDGLAPHSHEPIYSPGYFTRRAPPLLNRNFNERAFTVGIGGPVGTGKTALMLALCELLRENYSLAAVTNDIFTKEDGEFLVKHKALPEERIRAVETGGCPHAAIREDISINLGPLEELSNLFKADILLCESGGDNLAANFSRELADYIIYIIDVSGGDKIPRKGGPGITQADLLVINKTDLAPAIGADLAVMQRDALRMRDGGPFVFAQVKHKIGVEEIGNLVLQAWEAATGNKRH	0						18	18									95
